Assays:
[1] = biological target: T1, M110 peptide
T1 chain: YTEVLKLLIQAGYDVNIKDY

[2] = biological target: T2, IkBa 21 mer peptide
T2 chain: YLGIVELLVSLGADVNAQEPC

[3] = biological target: T3, FGIF peptide
T3 chain: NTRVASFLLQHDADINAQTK

[4] = biological target: T4, 2-5A-d-R peptide
T4 chain: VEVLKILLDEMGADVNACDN

[5] = biological target: T5, p105 21 mer peptide
T5 chain: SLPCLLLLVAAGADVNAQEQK

[6] = biological target: T6, CAD, HIF C-terminal transactivation domain standard peptide
T6 chain: DESGLPQLTSYDCEVNAPI

[7] = biological target: T7, GST HIF-1α 786-826, Q16665; settings: scale: % activity relative to GST HIF-1α 786-826
T7 chain: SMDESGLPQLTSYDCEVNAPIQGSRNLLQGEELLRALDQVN

[8] = biological target: T8, Tankyrase 1/2 peptide
T8 chain: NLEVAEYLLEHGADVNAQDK

[9] = biological target: T9, Myotrophin peptide
T9 chain: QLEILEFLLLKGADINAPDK

[10] = biological target: p105 ARD L668K mutant
[11] = biological target: T10, p19-INK-4d peptide
T10 chain: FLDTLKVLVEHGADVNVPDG

[12] = biological target: T11, FEM-1 21 mer peptide
T11 chain: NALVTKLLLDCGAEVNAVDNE

[13] = biological target: GST p105 ARD N to A mutant; settings: scale: % activity relative to GST HIF-1α 786-826
[14] = biological target: T12, Gankyrin/p28-II peptide
T12 chain: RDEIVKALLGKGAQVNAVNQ

[15] = biological target: T13, GABPbeta peptide
T13 chain: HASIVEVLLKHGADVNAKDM

[16] = biological target: T14, p105 ARD (ankyrin repeat domain of p105, amino acid residues 537-809), free form; settings: scale: % activity relative to GST HIF-1α 786-826
T14 chain: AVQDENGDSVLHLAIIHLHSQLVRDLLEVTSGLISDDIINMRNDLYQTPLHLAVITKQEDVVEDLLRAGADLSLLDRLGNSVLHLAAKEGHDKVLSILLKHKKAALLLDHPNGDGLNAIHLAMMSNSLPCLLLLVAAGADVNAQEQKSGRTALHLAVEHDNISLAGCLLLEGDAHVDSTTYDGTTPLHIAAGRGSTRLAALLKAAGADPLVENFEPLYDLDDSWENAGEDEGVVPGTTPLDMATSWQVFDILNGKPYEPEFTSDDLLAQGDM

[17] = biological target: T15, GST p105 ARD; settings: scale: % activity relative to GST HIF-1α 786-826
T15 chain: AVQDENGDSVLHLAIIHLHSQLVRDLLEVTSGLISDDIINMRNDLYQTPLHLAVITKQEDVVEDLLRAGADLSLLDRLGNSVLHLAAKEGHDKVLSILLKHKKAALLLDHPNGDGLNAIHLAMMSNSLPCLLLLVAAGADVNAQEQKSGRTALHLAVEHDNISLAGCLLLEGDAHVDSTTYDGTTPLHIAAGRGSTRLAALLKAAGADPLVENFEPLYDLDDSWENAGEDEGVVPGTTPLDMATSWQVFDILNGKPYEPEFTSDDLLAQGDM

[18] = biological target: T16, IkappaB-alpha, recombinant protein, P25963
T16 chain: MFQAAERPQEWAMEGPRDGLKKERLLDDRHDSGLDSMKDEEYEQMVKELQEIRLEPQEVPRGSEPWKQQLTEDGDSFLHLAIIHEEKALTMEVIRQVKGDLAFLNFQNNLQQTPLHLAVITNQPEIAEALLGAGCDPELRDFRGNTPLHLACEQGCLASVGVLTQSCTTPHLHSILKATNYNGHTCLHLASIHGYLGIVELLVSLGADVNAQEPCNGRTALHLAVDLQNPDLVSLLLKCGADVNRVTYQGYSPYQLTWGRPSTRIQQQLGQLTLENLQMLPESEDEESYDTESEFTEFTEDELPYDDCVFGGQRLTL

[19] = scale: % activity relative to GST HIF-1α 786-826

B1: factor inhibiting hypoxia-inducible factor (FIH), highly purified recombinant (protein)
chain: MAATAAEAVASGSGEPREEAGALGPAWDESQLRSYSFPTRPIPRLSQSDPRAEELIENEEPVVLTDTNLVYPALKWDLEYLQENIGNGDFSVYSASTHKFLYYDEKKMANFQNFKPRSNREEMKFHEFVEKLQDIQQRGGEERLYLQQTLNDTVGRKIVMDFLGFNWNWINKQQGKRGWGQLTSNLLLIGMEGNVTPAHYDEQQNFFAQIKGYKRCILFPPDQFECLYPYPVHHPCDRQSQVDFDNPDYERFPNFQNVVGYETVVGPGDVLYIPMYWWHHIESLLNGGITITVNFWYKGAPTPKRIEYPLKAHQKVAIMRNIEKMLGEALGNPQEVGPLLNTMIKGRYN
[1]
  Activity + FIH (relative to synthetic HIF1alphaCAD) (relative to synthetic HIF1alphaCAD): 122
  Hydroxylation of peptide observed by LC-MS analysis: Yes
[2]
  direct peptide substrate hydroxylation by LC-MS: both the FEM-1 and IkappaB-alpha peptides were observed to be hydroxylated under standard assay conditions
[2]; [19]
  % activity relative to GST HIF-1α 786-826 (decarboxylation of 2OG): 111
[3]
  Activity + FIH (relative to synthetic HIF1alphaCAD) (relative to synthetic HIF1alphaCAD): 168
  Hydroxylation of peptide observed by LC-MS analysis: Yes
[4]
  Activity + FIH (relative to synthetic HIF1alphaCAD) (relative to synthetic HIF1alphaCAD): 27.8
  Hydroxylation of peptide observed by LC-MS analysis: Yes
[5]
  2D-NMR spectra of the peptide after incubation with FIH: consistent with asparaginyl hydroxylation
[5]; [19]
  % activity relative to GST HIF-1α 786-826 (decarboxylation of 2OG): 100
[6]
  Activity + FIH (relative to synthetic HIF1alphaCAD) (relative to synthetic HIF1alphaCAD): 100
  Hydroxylation of peptide observed by LC-MS analysis: Yes
[6]; [19]
  % activity relative to GST HIF-1α 786-826 (decarboxylation of 2OG): 75
[7]
  % activity relative to GST HIF-1α 786-826 (decarboxylation of 2OG): 100
[8]
  Activity + FIH (relative to synthetic HIF1alphaCAD) (relative to synthetic HIF1alphaCAD): 107
  Hydroxylation of peptide observed by LC-MS analysis: Yes
  site of hydroxylation by LC-MS: LC-MS analyses located the site of hydroxylation to the internal asparagine residue in the case of tankyrase
[9]
  Activity + FIH (relative to synthetic HIF1alphaCAD) (relative to synthetic HIF1alphaCAD): 154
  Hydroxylation of peptide observed by LC-MS analysis: Yes
[10]
  MALDI ToF mass spectrometry of the tryptic digest after incubation with FIH: following incubation with FIH, a peak at 1,542 Da appears in the spectrum that corresponds to the hydroxylated 1,526 Da peptide i.e. +16 Da
[11]
  Activity + FIH (relative to synthetic HIF1alphaCAD) (relative to synthetic HIF1alphaCAD): 124
  Hydroxylation of peptide observed by LC-MS analysis: Yes
[12]
  2D-NMR spectra of the peptide after incubation with FIH: consistent with asparaginyl hydroxylation
  direct peptide substrate hydroxylation by LC-MS: both the FEM-1 and IkappaB-alpha peptides were observed to be hydroxylated under standard assay conditions
[12]; [19]
  % activity relative to GST HIF-1α 786-826 (decarboxylation of 2OG): 89
[13]
  % activity relative to GST HIF-1α 786-826 (decarboxylation of 2OG): 12
[14]
  Activity + FIH (relative to synthetic HIF1alphaCAD) (relative to synthetic HIF1alphaCAD): 116
  Hydroxylation of peptide observed by LC-MS analysis: Yes
[15]
  Activity + FIH (relative to synthetic HIF1alphaCAD) (relative to synthetic HIF1alphaCAD): 107
  Hydroxylation of peptide observed by LC-MS analysis: Yes
[16]
  % activity relative to GST HIF-1α 786-826 (decarboxylation of 2OG): 164
[17]
  % activity relative to GST HIF-1α 786-826 (decarboxylation of 2OG): 129
[18]
  MALDI-TOF mass spectrometry of tryptic fragments after incubation with FIH: The results demonstrated hydroxylation of the fragment
[18]; [19]
  % activity relative to GST HIF-1α 786-826 (decarboxylation of 2OG): 144
